Experimental data reported in patent publication US20020058323A1, “Monkey urotensin II” (priority 2000, published 2002).

Target: T1, Macaca fascicularis Urotensin II receptor (Macaca mulatta, UniProt Q8HYC3)
T1 construct: expressed in transfected cells
T1 sequence (Q8HYC3 1-389): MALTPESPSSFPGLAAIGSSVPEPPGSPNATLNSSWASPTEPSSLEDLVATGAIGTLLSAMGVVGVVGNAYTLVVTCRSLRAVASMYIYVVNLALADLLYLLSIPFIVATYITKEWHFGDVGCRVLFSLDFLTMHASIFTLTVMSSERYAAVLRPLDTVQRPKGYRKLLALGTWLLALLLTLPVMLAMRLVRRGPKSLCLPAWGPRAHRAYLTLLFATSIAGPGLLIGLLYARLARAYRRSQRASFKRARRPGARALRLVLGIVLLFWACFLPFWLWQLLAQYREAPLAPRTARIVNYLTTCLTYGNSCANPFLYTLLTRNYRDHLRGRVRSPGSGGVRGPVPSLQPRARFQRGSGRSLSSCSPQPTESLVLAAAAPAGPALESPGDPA
Experiment: Radioligand binding with Scatchard plot analysis on a stable HEK 293 cell line transfected with the Urotensin II receptor
Conditions: radiolabeled ligand, single set of binding sites, transfected HEK 293 cells
Text: 1. A stable cell line was developed from HEK 293 cells transfected with mammalian pCDN vector of the Macaca fascicularis Urotensin II receptor.

Kd: 0.214 ± 0.065 nM
B1: Macaca fascicularis Urotensin II: Macaca fascicularis Urotensin II polypeptide of the invention (SEQ ID NO:2, 125 amino acids), ligand of a G-protein coupled receptor (protein)
chain: MYKLASCCLLFIGFLNPLFSLPLLDSGEVSLQLSAPHEDAPLTSEELERASLLQILPEMLLGAERGDSLRKADSSTNIFNPRGNLRKFQDFSGQDPDILLSHLLARIRKPYKKRETPDCFWKYCV
modifications: MACACA FASCICULARIS
